B1: oxoG 48 bp (EMSA/FP) (dsDNA)
DNA 1: GCATGCCTCGAGTCTAGAGGTACCAGATCTGATCCTCTAGAGTCGACC
DNA 2: GGTCGACTCTAGAGGATCAGATCTGGTACCTCTAGACTCGAGGCATGC
modifications: 8-oxoguanine at position 10 of strand 1 (written G)
B2: undamaged (nsp) 48 bp (dsDNA)
DNA 1: B1 DNA 1
DNA 2: B1 DNA 2

Key:
hOGG1 C253A = hOGG1 C253A (human, UniProt O15527 1-345, C253A); assay: fluorescence polarisation; reducing; FP at 25°C with 5 nM labelled DNA; EMSA room temp 30 min, 15% native PAGE 0.5x TBE 4°C; interaction buffer 20 mM Tris-HCl pH 7.6, 200 mM NaCl (Fig. S12); reducing (5 mM DTT in EMSA) or oxidising (pre-oxidised hOGG1); conditions: protein: recombinant; tags: N-terminal His6 (removed where required); label: 5' AF647 (FP) or Cy3 (EMSA) on bottom strand; blunt
Chain of hOGG1 C253A (O15527 whole entry C253A): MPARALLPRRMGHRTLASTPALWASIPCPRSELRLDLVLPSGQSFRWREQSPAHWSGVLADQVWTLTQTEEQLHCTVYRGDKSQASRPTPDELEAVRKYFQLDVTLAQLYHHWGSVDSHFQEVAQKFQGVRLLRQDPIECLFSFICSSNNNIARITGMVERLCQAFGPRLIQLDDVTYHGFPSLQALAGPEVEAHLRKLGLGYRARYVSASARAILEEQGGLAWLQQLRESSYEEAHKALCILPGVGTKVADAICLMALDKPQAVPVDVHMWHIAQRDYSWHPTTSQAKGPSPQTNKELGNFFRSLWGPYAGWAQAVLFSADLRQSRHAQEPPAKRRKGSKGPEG

hOGG1 C28A [1] = molecular target: T1, hOGG1 C28A (human, UniProt O15527 1-345, C28A); assay: as above; conditions: protein: recombinant; tags: N-terminal His6 (removed where required); label: 5' AF647 (FP) or Cy3 (EMSA) on bottom strand; blunt
T1 sequence (O15527 whole entry C28A): as the sequence (O15527 whole entry C253A) above, with C28A, A253C counted along it

hOGG1 K249Q [2] = molecular target: T2, hOGG1 K249Q (human, UniProt O15527 1-345, K249Q); assay: as above; conditions: protein: recombinant; tags: N-terminal His6 (removed where required); label: 5' AF647 (FP) or Cy3 (EMSA) on bottom strand; blunt
T2 sequence (O15527 whole entry K249Q): as the sequence (O15527 whole entry C253A) above, with K249Q, A253C counted along it

hOGG1 wild type;c-Myc [3] = molecular target: T3, hOGG1 wild type;c-Myc (human;human?, UniProt O15527;P01106 1-345;16-454, |); assay: EMSA; 300 nM each; oxidising and reducing (less stable reducing); FP at 25°C with 5 nM labelled DNA; EMSA room temp 30 min, 15% native PAGE 0.5x TBE 4°C; interaction buffer 20 mM Tris-HCl pH 7.6, 200 mM NaCl (Fig. S12); reducing (5 mM DTT in EMSA) or oxidising (pre-oxidised hOGG1); conditions: protein: recombinant;commercial; tags: N-terminal His6 (removed by protease where required);GST; quantum dot in E-box AFM; label: 5' AF647 (FP) or Cy3 (EMSA) on bottom strand; blunt
T3 sequence (O15527 whole entry, chain 1 of 2): as the sequence (O15527 whole entry C253A) above, with A253C counted along it
T3 sequence (P01106 16-454, chain 2 of 2): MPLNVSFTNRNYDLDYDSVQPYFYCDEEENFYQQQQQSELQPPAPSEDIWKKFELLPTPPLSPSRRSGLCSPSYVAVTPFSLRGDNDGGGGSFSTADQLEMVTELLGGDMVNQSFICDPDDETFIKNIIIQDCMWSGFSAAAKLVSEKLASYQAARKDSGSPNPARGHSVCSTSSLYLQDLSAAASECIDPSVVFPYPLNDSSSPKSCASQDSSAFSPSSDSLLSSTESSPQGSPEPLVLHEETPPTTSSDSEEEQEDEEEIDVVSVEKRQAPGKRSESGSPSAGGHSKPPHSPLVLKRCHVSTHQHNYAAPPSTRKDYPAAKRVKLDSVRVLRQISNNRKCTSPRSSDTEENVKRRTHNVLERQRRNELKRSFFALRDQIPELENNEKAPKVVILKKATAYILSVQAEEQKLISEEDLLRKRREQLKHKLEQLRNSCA

hOGG1 C28A [4] = molecular target: T1, hOGG1 C28A; assay: fluorescence polarisation; oxidising; FP at 25°C with 5 nM labelled DNA; EMSA room temp 30 min, 15% native PAGE 0.5x TBE 4°C; interaction buffer 20 mM Tris-HCl pH 7.6, 200 mM NaCl (Fig. S12); reducing (5 mM DTT in EMSA) or oxidising (pre-oxidised hOGG1); conditions: protein: recombinant; tags: N-terminal His6 (removed where required); label: 5' AF647 (FP) or Cy3 (EMSA) on bottom strand; blunt
hOGG1 K249Q [5] = molecular target: T2, hOGG1 K249Q; assay: as above; conditions: protein: recombinant; tags: N-terminal His6 (removed where required); label: 5' AF647 (FP) or Cy3 (EMSA) on bottom strand; blunt
hOGG1 wild type;c-Myc [6] = molecular target: T3, hOGG1 wild type;c-Myc; assay: EMSA; less stable under reducing conditions; FP at 25°C with 5 nM labelled DNA; EMSA room temp 30 min, 15% native PAGE 0.5x TBE 4°C; interaction buffer 20 mM Tris-HCl pH 7.6, 200 mM NaCl (Fig. S12); reducing (5 mM DTT in EMSA) or oxidising (pre-oxidised hOGG1); conditions: protein: recombinant;commercial; tags: N-terminal His6 (removed by protease where required);GST; quantum dot in E-box AFM; label: 5' AF647 (FP) or Cy3 (EMSA) on bottom strand; blunt

Binder	Kd (hOGG1 C253A) [nM]	Kd (hOGG1 C28A [1]) [nM]	Kd (hOGG1 K249Q [2]) [nM]	binding result (hOGG1 wild type;c-Myc [3])	Kd (hOGG1 C28A [4]) [nM]	Kd (hOGG1 K249Q [5]) [nM]	binding result (hOGG1 wild type;c-Myc [6])
B1	99 ± 24	65 ± 8	42 ± 3	binds	61 ± 11	95 ± 5	
B2							binds

— PMC9561264, “Direct hOGG1-Myc interactions inhibit hOGG1 catalytic activity and recruit Myc to its promoters under oxidative stress”
